The target in test [1] is HLA-A*02:11. Briefly: IEDB peptide-MHC binding, purified MHC/competitive/fluorescence; filed as Kd, often an IC50 or EC50 that approximates it; ≥ and ≤ were set here for values at or beyond the usual limits of such assays. As to conditions: source organism: Giardia lamblia ATCC 50803.
For test [2], the target named is HLA-B*46:01. Described as above.
The next test concerns the target HLA-B*51:01. The description is as above.
The target of test [3] is HLA-A*29:02. The description is as above. As to conditions: source organism: Giardia lamblia ATCC 50803.
Test [4] deals with HLA-A*02:03. The test is described as above. To be noted: source organism: Giardia lamblia ATCC 50803.
Another test addresses HLA-B*15:17. The description is as above.
The target of a further test is HLA-B*27:03. Described as above. As to conditions: source organism: Giardia lamblia ATCC 50803.
For the next test, the target named is HLA-A*02:01. The description is as above.
Test [5] concerns the target HLA-A*02:12. The description is as above. As to conditions: source organism: Giardia lamblia ATCC 50803.
In test [6] the target is HLA-A*24:03. The test is described as above. To be noted: source organism: Giardia lamblia ATCC 50803.
Test [7] deals with HLA-A*02:19. The test is described as above. To be noted: source organism: Giardia lamblia ATCC 50803.
In a further test the target is HLA-B*18:01. Described as above.
For a further test, the target named is HLA-B*39:01. Described as above.
The target in the next test is HLA-A*26:01. The test is described as above.
Test [8] addresses HLA-B*57:01. The test is described as above.
The target of test [9] is HLA-A*03:01. The description is as above. As to conditions: source organism: Giardia lamblia ATCC 50803.
In the next test the target is HLA-B*15:01. The test is described as above.
The target in test [10] is HLA-A*02:16. The test is described as above. To be noted: source organism: Francisella tularensis subsp. tularensis FSC198.
A further test has as its target HLA-B*45:06. The description is as above. To be noted: source organism: Vibrio parahaemolyticus RIMD 2210633.
The next test concerns the target HLA-B*15:42. The test is described as above. To be noted: source organism: Vibrio parahaemolyticus RIMD 2210633.
The next test concerns the target HLA-A*69:01. Described as above.
For the next test, the target named is HLA-B*83:01. Described as above. As to conditions: source organism: Vibrio parahaemolyticus RIMD 2210633.
Another test concerns the target HLA-A*11:01. Put plainly: IEDB peptide-MHC binding, purified MHC/direct/fluorescence; filed as Kd, often an IC50 or EC50 that approximates it; ≥ and ≤ were set here for values at or beyond the usual limits of such assays.
Test [11] concerns the target HLA-A*02:11. The test is described as above. As to conditions: source organism: Vibrio parahaemolyticus RIMD 2210633.
In the next test the target is HLA-A*68:02. Described as above. As to conditions: source organism: Vibrio parahaemolyticus RIMD 2210633.
Test [12] concerns the target HLA-A*29:02. The test is described as above. To be noted: source organism: Vibrio parahaemolyticus RIMD 2210633.
Test [13] deals with HLA-A*02:03. The description is as above. As to conditions: source organism: Vibrio parahaemolyticus RIMD 2210633.
For test [14], the target named is HLA-A*02:12. The test is described as above. To be noted: source organism: Vibrio parahaemolyticus RIMD 2210633.
The next test deals with HLA-A*23:01. The description is as above. As to conditions: source organism: Vibrio parahaemolyticus RIMD 2210633.
For test [15], the target named is HLA-A*24:03. The description is as above. As to conditions: source organism: Vibrio parahaemolyticus RIMD 2210633.
The target in test [16] is HLA-A*02:16. The test is described as above. To be noted: source organism: Vibrio parahaemolyticus RIMD 2210633.
The target of test [17] is HLA-A*02:19. Described as above. To be noted: source organism: Vibrio parahaemolyticus RIMD 2210633.
For a further test, the target named is HLA-B*08:01. Put plainly: IEDB peptide-MHC binding, purified MHC/competitive/fluorescence; filed as Kd, often an IC50 or EC50 that approximates it; ≥ and ≤ were set here for values at or beyond the usual limits of such assays.
For test [18], the target named is HLA-B*46:01. Put plainly: IEDB peptide-MHC binding, purified MHC/direct/fluorescence; filed as Kd, often an IC50 or EC50 that approximates it; ≥ and ≤ were set here for values at or beyond the usual limits of such assays. To be noted: source organism: Escherichia coli O157:H7.
For the next test, the target named is HLA-B*48:01. The test is described as above. As to conditions: source organism: Escherichia coli O157:H7.
The next test deals with HLA-B*27:05. The description is as above. To be noted: source organism: Escherichia coli O157:H7.
A further test addresses HLA-B*40:01. The description is as above. As to conditions: source organism: Escherichia coli O157:H7.
Another test addresses HLA-A*01:01. The description is as above. As to conditions: source organism: Escherichia coli O157:H7.
In the next test the target is HLA-A*31:01. The test is described as above. To be noted: source organism: Escherichia coli O157:H7.
The target of another test is HLA-B*58:01. The test is described as above. As to conditions: source organism: Escherichia coli O157:H7.
Test [19] concerns the target HLA-B*57:01. Described as above. To be noted: source organism: Escherichia coli O157:H7.
Test [20] addresses HLA-A*03:01. The test is described as above. As to conditions: source organism: Escherichia coli O157:H7.
Where [21] appears, read: source organism: Giardia lamblia ATCC 50803.
[22] abbreviates: source organism: Vibrio parahaemolyticus RIMD 2210633.
Setting [23] is: source organism: Escherichia coli O157:H7 str. EDL933.

On to AILAGEHKC, for which the equilibrium dissociation constant (Kd) with HLA-A*02:11 [1], in the test with HLA-B*46:01 [2] (setting [21]), in the test with HLA-B*51:01 (setting [21]), in the test with HLA-A*29:02 [3], in the test with HLA-A*02:03 [4] and with HLA-B*15:17 (setting [21]) was at least 20 µM in each case. Besides, the Kd is at least 20 µM with HLA-B*27:03; at least 20000 nM with HLA-A*02:01 (setting [21]); 3.73 µM in the test with HLA-A*02:12 [5]; at least 20 µM with HLA-A*24:03 [6]; at least 20 µM with HLA-A*02:19 [7]; at least 20 µM with HLA-B*18:01 (setting [21]). Also, the Kd with HLA-B*39:01 (setting [21]) was at least 20 µM; with HLA-A*26:01 (setting [21]), at least 20 µM; in the test with HLA-B*57:01 [8] (setting [21]), at least 20 µM; with HLA-A*03:01 [9] it was at least 20 µM; in the test with HLA-B*15:01 (setting [21]), at least 20000 nM.
Regarding TVIEGLDKL, the Kd was found to be 88.4 nM in the test with HLA-A*02:01 (source organism: Francisella tularensis subsp. tularensis FSC198) and 194 nM with HLA-A*02:16 [10].
As for SMNYPNSYK, the Kd in the test with HLA-B*45:06 is at least 5 µM; with HLA-B*46:01 [2] (setting [22]), at least 20 µM; with HLA-B*51:01 (setting [22]), at least 20 µM; with HLA-B*15:42, at least 5 µM; with HLA-A*69:01 (setting [22]), at least 20000 nM; with HLA-B*15:17 (setting [22]), at least 20 µM. The equilibrium dissociation constant (Kd) in the test with HLA-A*02:01 (setting [22]) is at least 20000 nM; with HLA-B*83:01 it was at least 5 µM; in the test with HLA-B*18:01 (setting [22]), at least 20 µM; with HLA-B*39:01 (setting [22]), at least 20 µM; in the test with HLA-A*26:01 (setting [22]), at least 20 µM; in the test with HLA-B*57:01 [8] (setting [22]), at least 20 µM. Also, the Kd in the test with HLA-A*11:01 (setting [22]) was at most 0.001 µM; with HLA-A*02:11 [11] it was at least 20 µM; with HLA-A*68:02 it was at least 20 µM; with HLA-A*29:02 [12] it was at least 20 µM; with HLA-A*02:03 [13], at least 20 µM; in the test with HLA-A*02:12 [14] it was at least 20 µM. Moreover, the Kd with HLA-A*23:01, with HLA-A*24:03 [15], in the test with HLA-A*02:16 [16] and with HLA-A*02:19 [17] was at least 20 µM throughout.
Take MQQGRFPPL: the Kd with HLA-B*08:01 (source organism: Yersinia pestis CO92) stood at 340 nM.
Consider FIVEHINAM, for which the Kd is 680 nM with HLA-A*69:01 (setting [23]); 10.4 nM with HLA-A*02:01 (setting [23]); 92.5 nM in the test with HLA-B*15:01 (setting [23]); 910 nM with HLA-B*08:01 (setting [23]); at least 20 µM with HLA-A*11:01 (source organism: Escherichia coli O157:H7); 232 nM with HLA-B*46:01 [18]. Moreover, the Kd with HLA-B*48:01, in the test with HLA-B*27:05, in the test with HLA-B*40:01, with HLA-A*01:01, with HLA-A*31:01 and with HLA-B*58:01 was at least 20 µM in each case. Besides, the dissociation constant Kd with HLA-B*57:01 [19] and with HLA-A*03:01 [20] was at least 20 µM throughout.
